Source: patent publication US20170326246A1 (INSTITUT PASTEUR, published 2017)
*1 amine or outer side, *2 acyl side, *3 side chain or, on linkers, in order; H or OH if unused. [ ]: non-standard residue; d: D form. U1 = 4-cyclohexylmethoxy-L-phenylalanine, O=C([C@H](Cc1ccc(OCC2CCCCC2)cc1)N[*:1])[*:2]; Bip = N[C@@H](Cc1ccc(-c2ccccc2)cc1)C(=O)O; Tpa = thiopropionic acid

How the values were obtained:
Test in all cases: cell-based or functional assay
[1] = molecular target: gp120 of viral strain IIIB (HIV, strain IIIB)
[2] = molecular target: gp120 of viral strain MN (HIV, strain MN, UniProt P05877 32-513)
[3] = molecular target: gp120 of viral strain SHIV162p3 (SHIV162p3)
[4] = molecular target: gp120 of viral strain SF162 (HIV, strain SF162, UniProt P19550 32-502)
[5] = molecular target: gp120 of viral strain VI829 (HIV, strain VI829)
[6] = molecular target: gp120 of viral strain VI820 (HIV, strain VI820)
[7] = molecular target: gp120 of viral strain VI1888 (CRF01) (HIV, strain VI1888 (CRF01))
[8] = molecular target: gp120 of viral strain MP568 (CRF02) (HIV, strain MP568 (CRF02))
[9] = molecular target: gp120 of viral strain VI824 (HIV, strain VI824)
[10] = molecular target: gp120 of viral strain Ca10-3 (CRF01) (HIV, strain Ca10-3 (CRF01))
[11] = molecular target: gp120 of viral strain p246F10 (HIV, strain p246F10)
[12] = molecular target: gp120 of viral strain pREJO.c/2864 cl2 (HIV, strain pREJO.c/2864 cl2)
[13] = molecular target: gp120 of viral strain Bal (HIV, strain Bal)

Binder	EC50 (antiviral activity, TZM-bl cells, luciferase) [1] [nM]	EC50 (antiviral activity, TZM-bl cells, luciferase) [2] [nM]	EC50 (antiviral activity, TZM-bl cells, luciferase) [3] [nM]	EC50 (antiviral activity, TZM-bl cells, luciferase) [4] [nM]	EC50 (antiviral activity, TZM-bl cells, luciferase) [5] [nM]	EC50 (antiviral activity, TZM-bl cells, luciferase) [6] [nM]	EC50 (antiviral activity, TZM-bl cells, luciferase) [7] [nM]	EC50 (antiviral activity, TZM-bl cells, luciferase) [8] [nM]	EC50 (antiviral activity, TZM-bl cells, luciferase) [9] [nM]	EC50 (antiviral activity, TZM-bl cells, luciferase) [10] [nM]	EC50 (antiviral activity, TZM-bl cells, luciferase) [11] [nM]	EC50 (antiviral activity, TZM-bl cells, luciferase) [12] [nM]	EC50 (antiviral activity, TZM-bl cells, luciferase) [13] [nM]
Tpa-NLHKCQLRCRSLGLLGRCA[dP]T[U1]CACV-NH2 (disulfide (positions not given here)) [mCD4.3]	0.16	0.37	29	0.66	221	4.2	8020	204	39	3.1	510	46	2.3
mCD4.3-PS1 (not fully specified; N-terminal gamma-aminobutyric acid (gammaAbu) acylated with 3-thiopropionyl (from SATP); all six Tyr are sulfotyrosine (YSO3); N-terminal Tpa; D-proline at position 21; U1 (4-cyclohexylmethoxy-L-phenylalanine) at position 23; C-terminal amide; Lys5 N-epsilon carries the PEO2-maleimide linker bound to the thiol of the PS1 chain) peptide 1: NLHKCQLRCRSLGLLGRCAPTFCACV peptide 2: SYDYSYDYSYDYS	0.0025	0.026	1.4	0.008	3.6	0.024	1210	4.2	0.7	0.076	33	0.28	0.031
mCD4.2-PS1 (not fully specified; N-terminal gamma-aminobutyric acid (gammaAbu) acylated with 3-thiopropionyl (from SATP); all six Tyr are sulfotyrosine (YSO3); N-terminal Tpa; D-proline at position 21; U1 (4-cyclohexylmethoxy-L-phenylalanine) at position 23; C-terminal amide; Lys5 N-epsilon carries the PEO2-maleimide linker bound to the thiol of the PS1 chain) peptide 1: NLHKCQLRCSSLGLLGRCAPTFCACV peptide 2: SYDYSYDYSYDYS	0.007	0.046	2.2	0.01	4	0.031	1060	4.9	0.68	0.12	58	0.27	0.034
M48U1-PS1 (not fully specified; N-terminal gamma-aminobutyric acid (gammaAbu) acylated with 3-thiopropionyl (from SATP); all six Tyr are sulfotyrosine (YSO3); N-terminal Tpa; D-proline at position 21; U1 (4-cyclohexylmethoxy-L-phenylalanine) at position 23; C-terminal amide; Lys11 N-epsilon carries the PEO2-maleimide linker bound to the thiol of the PS1 chain) peptide 1: NLHFCQLRCKSLGLLGRCAPTFCACV peptide 2: SYDYSYDYSYDYS	0.02	0.12	3.4	0.05	1.1	0.1	1070	15	2.2	0.6			0.13
mCD4.1-PS1 (N-terminal gamma-aminobutyric acid (gammaAbu) acylated with 3-thiopropionyl (from SATP); all six Tyr are sulfotyrosine (YSO3); N-terminal Tpa (thiopropionic acid); Bip at position 23; C-terminal …; Lys5 N-epsilon carries the PEO2-maleimide linker bound to the thiol of the PS1 chain) peptide 1: NLHKCQLRCSSLGLLGRCAGSFCACV peptide 2: SYDYSYDYSYDYS	0.013	0.08	36	0.11	16	25	1100	310	40	0.57	723	0.66	0.54
Tpa-NLHKCQLRCSSLGLLGRCA[dP]T[U1]CACV-NH2 (disulfide (positions not given here)) [mCD4.2]	0.22	0.6	69	1.24	512	6.1	9760	155	56	4.73	718	76	2
Tpa-NLHKCQLRCSSLGLLGRCAGS[Bip]CACV-NH2 (disulfide (positions not given here); also: three disulphide bridges, pairing not given here) [mCD4.1]	29	20	5370	130	> 10000	1690	> 1000	7930	3180	96	> 10000	108	236
Tpa-NLHFCQLRCKSLGLLGRCA[dP]T[U1]CACV-NH2 (disulfide (positions not given here)) [M48U1]	0.08	0.25	24	1	59	3.8	8420	129	29	2.7			0.96
